Common to all, as to test: BLI; Octet Red96, 96 well plates, PBS-T buffer (1X PBS, 0.05% tween-20); 120 µM biotinylated peptide attached to the sensor; analytes (SIRT6/SIRT6 mutants) from 0.18 to 5.5 µM; also run with cofactors (5 mM Mg2+, Zn2+, ATP, ADP, AMP, cAMP, NAD+)
Common to all, as to settings: both partners purified

Experiment [1] concerns the target T1, Wild-type SIRT6 (Sirtuin 6) (human, UniProt Q8N6T7 1-355).
T1 construct: human SIRT6, full length (1-355aa), from pUC57-SIRT6 into pET28a; no tag cleavage is described; also called SIRT6 WT; source: E. coli ArcticExpress (DE3), purified (Ni Sepharose); not shown: His-tag, N-terminal, kept; Flag, C-terminal, kept

The next experiment has as its target T2, SIRT6 H133Y (human, UniProt Q8N6T7 1-355, H133Y).
T2 construct: human SIRT6, full length (1-355aa), pET28a-SIRT6H133Y; also called dSIRT6; dSIRT6 (H133Y); source: E. coli ArcticExpress (DE3), purified (Ni Sepharose); not shown: His-tag, N-terminal, kept; Flag, C-terminal, kept

A further experiment concerns the target T3, SIRT6 S56Y (human, UniProt Q8N6T7 1-355, S56Y).
T3 construct: human SIRT6, full length (1-355aa), pET28a-SIRT6S56Y; also called dSIRT6 variant; source: E. coli ArcticExpress (DE3), purified (Ni Sepharose); not shown: His-tag, N-terminal, kept; Flag, C-terminal, kept

Another experiment deals with T4, SIRT6 R65A (human, UniProt Q8N6T7 1-355, R65A).
T4 construct: human SIRT6, full length (1-355aa), pET28a-SIRT6R65A; also called dSIRT6 variant; source: E. coli ArcticExpress (DE3), purified (Ni Sepharose); not shown: His-tag, N-terminal, kept; Flag, C-terminal, kept
T4 sequence (Q8N6T7 whole entry R65A): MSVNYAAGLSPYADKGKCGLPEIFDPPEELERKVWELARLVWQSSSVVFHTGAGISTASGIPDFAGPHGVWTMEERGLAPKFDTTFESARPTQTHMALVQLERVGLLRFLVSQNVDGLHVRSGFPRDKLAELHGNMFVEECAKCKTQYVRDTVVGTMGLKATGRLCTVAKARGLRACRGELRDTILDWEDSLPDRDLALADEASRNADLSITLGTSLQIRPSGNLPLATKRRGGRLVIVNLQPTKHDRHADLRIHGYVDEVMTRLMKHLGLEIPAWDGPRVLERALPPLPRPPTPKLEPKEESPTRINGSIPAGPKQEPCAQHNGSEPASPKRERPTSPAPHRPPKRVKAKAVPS

The text below walks through data of publication PMC12591191, “SIRT6 Lysine‐Demyristoylates ATF2 to Ameliorate Vascular Injury via PRKCD/VE‐Cadherin Pathway Regulating Vascular Endothelial Barrier” (Advanced Science, 2025).

Where no end group is shown, it is not given here. The star is where a group is joined. Biotin = O=C1N[C@H]2[C@H](CS[C@H]2CCCCC(=O)*)N1; Myristoyl = CCCCCCCCCCCCCC(=O)*

Broadly, the Kd is the free concentration of one partner at which half of the binding sites on the other are occupied at equilibrium, for simple one-to-one binding.

T3 sequence (Q8N6T7 whole entry S56Y): as the sequence (Q8N6T7 whole entry R65A) above, with S56Y, A65R counted along it
T1 sequence (Q8N6T7 whole entry): as the sequence (Q8N6T7 whole entry R65A) above, with A65R counted along it
T2 sequence (Q8N6T7 whole entry H133Y): as the sequence (Q8N6T7 whole entry R65A) above, with A65R, H133Y counted along it

B1: B-H3K9^Myr-5R (biotin-KQTARK^MyrSTGGKARRRRR) (peptide)
peptide: Biotin-KQTARK(Myristoyl)STGGKARRRRR
notes: histone H3 N-terminal stretch around K9; five arginine residues added at the C-terminus so that the peptide is soluble in water; also called myristoylated peptide; source: synthetic peptide (Boster Biological Technology)
On to B1, for which binding in experiment [1] was characterised by a dissociation constant (Kd) of 8.1 ± 0.96 µM. The binding result in the experiment with SIRT6 H133Y, with SIRT6 S56Y and in the experiment with SIRT6 R65A was “binds” each time.
